Assay [1] deals with T1, monomeric human CSF1R ectodomain protein (human, UniProt P07333 20-517).
T1 construct: also called biotinylated monomeric human CSF1R
The assay is described as follows: AlphaScreen competition with mu0301 IgG4(S228P) for biotinylated monomeric human CSF1R. The protocol:
The AlphaScreen assay (Perkin Elmer) was performed in a 25 μl final volume in 384-well white microtiter plates (Greiner). The reaction buffer contained 1×PBS pH 7.3 (Oxoid, Cat. nr. BR0014G) and 0.05% (v/v) Tween® 20 (Sigma, Cat. nr. P9416). Purified IgG samples were titrated in three fold serial dilutions starting at 500 nM final concentration and incubated with biotinylated human CSF1R for 20 minutes at room temperature. […] The emission of light was measured in the EnVision multilabel plate reader (Perkin Elmer) and analysed using the EnVision manager software. Values were reported as Counts Per Second (CPS) and corrected for crosstalk. The EC50 values were calculated using the […] in GraphPad Prism software (GraphPad Software, La Jolla, Calif.).

The target in assay [2] is T2, monomeric cynomolgus monkey CSF1R ectodomain protein (cynomolgus monkey, UniProt P07333 20-517 (human entry)).
T2 construct: also called monomeric cyno CSF1R; Cyno CSF1R
T2 chain: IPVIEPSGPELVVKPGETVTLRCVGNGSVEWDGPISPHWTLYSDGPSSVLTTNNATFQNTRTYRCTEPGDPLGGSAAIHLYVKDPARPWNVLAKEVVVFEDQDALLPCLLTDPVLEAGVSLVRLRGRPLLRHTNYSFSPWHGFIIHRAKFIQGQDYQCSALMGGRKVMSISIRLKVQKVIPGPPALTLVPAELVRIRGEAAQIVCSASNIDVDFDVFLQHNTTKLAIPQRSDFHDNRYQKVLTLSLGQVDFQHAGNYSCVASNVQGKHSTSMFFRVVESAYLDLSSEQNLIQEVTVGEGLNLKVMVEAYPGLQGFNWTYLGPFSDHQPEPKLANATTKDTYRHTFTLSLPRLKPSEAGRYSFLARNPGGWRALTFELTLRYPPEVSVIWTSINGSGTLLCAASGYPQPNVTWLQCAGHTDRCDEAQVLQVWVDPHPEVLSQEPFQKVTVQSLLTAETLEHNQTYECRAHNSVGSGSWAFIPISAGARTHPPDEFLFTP
The assay is described as follows: SPR Biacore, IgG captured, monomeric CSF1R analyte. The protocol: (§1) Affinity (KD) of purified IgGs was determined via SPR with antigen in-solution on a Biacore 3000 (GE). A mouse anti-human antibody (CH1 specific) was immobilized on a CM5 Sensor Chip to a level of 2000 RU in acetate buffer at pH 4.5 using amine coupling following the Wizard instructions for two channels. One channel was used for background signal correction. The standard running buffer HBS-EP pH 7.4 was used. Regeneration was performed with a single injection of 10 μl of 10 mM Glycine at pH 1.5 at 20 μl/minute. IgG samples were injected for 2 minutes at 50 nM at 30 μl/min followed by and off-rate of 60 seconds. The monomeric ectodomain protein (human CSF1R or cynomolgus monkey CSF1R) was injected in two fold serial dilutions from 100 nM down to 3.1 nM, for 2 minutes at 30 μl/min followed by an off-rate of 300 seconds. The obtained sensorgrams were analysed using the Biacore 3000 evaluation (BIAevaluation) software. The KD was calculated by simultaneous fitting of the association and dissociation phases to a 1:1 Langmuir binding model.
(§2) Biacore analyses of binding affinity were performed for all IgGs to solution-phase, monomeric human and cyno CSF1R proteins (Table 6). […] Affinity differentials of less than 3-fold between human and cyno target orthologs are highly beneficial in pre-clinical drug development analyses as they allow more accurate design and interpretation of e.g. monkey safety, PK and PD modelling experiments.
In general terms: SPR reads the build-up and loss of mass on a sensor chip optically.

Assay [3] addresses T1, monomeric human CSF1R ectodomain protein. Kind of assay: SPR Biacore, IgG captured, monomeric CSF1R analyte. The protocol: as §1, §2
The next assay deals with T3, human insulin (human, UniProt P01308 25-54; P01308 90-110, limits assumed).
T3 construct: Coated antigen of the polyreactivity ('PK-risk indicator') ELISA
T3 sequence (P01308 25-54 limits assumed, chain 1 of 2): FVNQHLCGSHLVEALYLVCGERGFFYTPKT
T3 sequence (P01308 90-110 limits assumed, chain 2 of 2): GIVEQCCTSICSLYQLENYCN
The assay is described as follows: ELISA on human insulin (development risk, polyreactivity), binding score.

Assay [4] addresses T2, monomeric cynomolgus monkey CSF1R …. The assay is described as follows: SPR Biacore, IgG captured, monomeric CSF1R analyte. How it is done: as §1
In assay [5] the target is T1, monomeric human CSF1R ectodomain protein. Kind of assay: SPR Biacore, IgG captured, monomeric CSF1R analyte. The protocol:
as §1
The source holds these as a separate data set.

Residue numbers refer to the chain shown, from its start. Names and notes keep the numbering of the source. Like-named read-outs stand apart in the source and are kept apart here.

The IC50 is the midpoint of a concentration-inhibition curve. Usually Kd stands for the free concentration of one partner at which half of the binding sites on the other are occupied at equilibrium, for simple one-to-one binding. As usually defined, the koff is a measure of how fast the partners let go of each other. By kon is commonly meant a measure of how fast the partners come together.

B1: 29A03 (antibody, human IgG4, V domains shown)
VH: QVQLVQSGAEVKKPGSSVKVSCKASGYTFSSNYMIWVRQAPGQGLEWMGDINPYNGGATYNQKFQGRVTITADESTSTAYMELSSLRSEDTAVYYCAREPPYFSNLYVMDYWGQGTLVTVSS
VL: EIVLTQSPATLSLSPGERATLSCRASQSVEYEGENYLNWYQQKPGQAPRLLIYAASNRATGIPARFSGSGSGTDFTLTISSLEPEDFAVYYCQLSNQDLLTFGGGTKVEIK
notes: Library-derived clone, tested as human IgG4(S228P)/Ckappa IgG; framework residue limits counted on the grafts
Regarding B1, the IC50 in assay [1] turned out to be 4.6 nM. In assay [2], this molecule had a Kd of 1.2 nM, a koff of 0.00032 s⁻¹ and a kon of 270000 M⁻¹ s⁻¹. In assay [3], the affinity, expressed as Kd, was 0.39 nM; the koff was 0.0006 s⁻¹; the kon turned out to be 1.6e+06 M⁻¹ s⁻¹.

B2: MH17 (antibody, human IgG4, V domains shown)
VH: B1 VH with N32A, T59N, N61A, P100G
VL: B1 VL with E30S, L82P, Q97E
notes: Deimmunized MH5 derivative, human IgG4(S228P)/Ckappa IgG
Regarding B2, the binding result in the assay with human insulin is reported as “no binding”. In assay [4], this molecule yielded a Kd of 1.33 nM, a koff of 0.000906 s⁻¹ and a kon of 683000 M⁻¹ s⁻¹. In assay [5], this molecule showed a Kd of 0.834 nM, a koff of 0.00112 s⁻¹ and a kon of 1.35e+06 M⁻¹ s⁻¹.

B3: MH32 (antibody, human IgG4, V domains shown)
VH: B1 VH with N32A, T59N, N61A, P100G, Q114R
VL: B1 VL with E30S, L50S, N57D, L82P, Q97E
notes: Deimmunized MH5 derivative, human IgG4(S228P)/Ckappa IgG; also called MN32
In assay [4], B3 displayed a Kd of 0.979 nM, a koff of 0.00103 s⁻¹ and a kon of 1.05e+06 M⁻¹ s⁻¹. Also, in assay [5], the Kd came to 0.62 nM, the koff turned out to be 0.00127 s⁻¹ and the kon came to 2.04e+06 M⁻¹ s⁻¹.

B4: MH41 (antibody, human IgG4, V domains shown)
VH: B1 VH with N32H, T59N, N61A, P100G, Q114R
VL: B1 VL with E30S, L82P, Q97E
notes: Deimmunized MH5 derivative, human IgG4(S228P)/Ckappa IgG; also called MN41
Consider B4, for which the binding result with human insulin is recorded as “no binding”. Moreover, in assay [4], the Kd was 1.46 nM, the koff is 0.000972 s⁻¹ and the kon is 666000 M⁻¹ s⁻¹. In assay [5], this molecule displayed a Kd of 0.851 nM, a koff of 0.00109 s⁻¹ and a kon of 1.28e+06 M⁻¹ s⁻¹.

B5: MH40 (antibody, human IgG4, V domains shown)
VH: B1 VH with N32H, T59N, N61A, P100G, Q114R
VL: B1 VL with E30S, L50S, N57D, L82P, Q97E
notes: as for B2
On to B5, for which, in the assay with human insulin, the binding result is “no binding”. In assay [4], this molecule registered a Kd of 0.948 nM, a koff of 0.00101 s⁻¹ and a kon of 1.06e+06 M⁻¹ s⁻¹. In addition, in assay [5], the Kd came to 0.553 nM, the koff was determined as 0.00113 s⁻¹ and the kon amounted to 2.05e+06 M⁻¹ s⁻¹.

B6: MH11 (antibody, human IgG4, V domains shown)
VH: B1 VH with T59N, N61A, P100G
VL: B1 VL with E30S, L50A, L51A, L82P, Q97E
notes: as for B2
In assay [4], B6 displayed a Kd of 1.29 nM, a koff of 0.00103 s⁻¹ and a kon of 802000 M⁻¹ s⁻¹. In assay [5], this molecule registered a Kd of 0.776 nM, a koff of 0.00119 s⁻¹ and a kon of 1.53e+06 M⁻¹ s⁻¹.

B7: MH24 (antibody, human IgG4, V domains shown)
VH: B1 VH with N32H, T59N, N61A, P100G
VL: B1 VL with E30S, L50S, N57D, L82P, Q97E
notes: as for B2
On to B7, for which, in assay [4], the Kd was determined as 0.777 nM, the “fold of the affinity of hu0301” value is at most 2 fold, the koff was found to be 0.000833 s⁻¹ and the association rate constant (kon) came out at 1.07e+06 M⁻¹ s⁻¹. In assay [5], the affinity, expressed as Kd, was 0.397 nM; the “fold of the affinity of hu0301” value was at most 2 fold; the koff turned out to be 0.000976 s⁻¹; the kon was 2.46e+06 M⁻¹ s⁻¹.

B8: MH29 (antibody, human IgG4, V domains shown)
VH: B1 VH with T59N, N61A, P100G, Q114R
VL: B1 VL with E30S, L82P, Q97E
notes: as for B2
For the molecule B8, the binding result with human insulin is listed as “no binding”. In assay [4], this molecule gave a Kd of 0.913 nM, a koff of 0.000813 s⁻¹ and a kon of 891000 M⁻¹ s⁻¹. In assay [5], the Kd turned out to be 0.562 nM, the koff stood at 0.000961 s⁻¹ and the kon was 1.71e+06 M⁻¹ s⁻¹.

B9: MH25 (antibody, human IgG4, V domains shown)
VH: B1 VH with N32H, T59N, N61A, P100G
VL: B1 VL with E30S, L82P, Q97E
notes: as for B2
With B9, in the assay with human insulin, the binding result is “no binding”. In addition, in assay [4], the Kd was 1.03 nM, the koff was 0.000758 s⁻¹ and the kon is 733000 M⁻¹ s⁻¹. In assay [5], this molecule returned a Kd of 0.634 nM, a koff of 0.000921 s⁻¹ and a kon of 1.45e+06 M⁻¹ s⁻¹.

B10: MH12 (antibody, human IgG4, V domains shown)
VH: B1 VH with T59N, N61A, P100G
VL: B1 VL with E30S, L50S, N57D, L82P, Q97E
notes: Deimmunized MH5 derivative, human IgG4(S228P)/Ckappa IgG; also called mAb-4
On to B10, for which, in the assay with human insulin, the binding result is “no binding”. For the same molecule, in assay [4], the dissociation constant (Kd) was 0.557 nM, the “fold of the affinity of hu0301” value is at most 2 fold, the koff is 0.000726 s⁻¹ and the kon came out at 1.3e+06 M⁻¹ s⁻¹. In assay [5], the affinity, expressed as Kd, was 0.342 nM; the “fold of the affinity of hu0301” value was at most 2 fold; the dissociation rate constant (koff) was 0.000832 s⁻¹; the kon came out at 2.43e+06 M⁻¹ s⁻¹.

B11: MH16 (antibody, human IgG4, V domains shown)
VH: B1 VH with N32A, T59N, N61A, P100G
VL: B1 VL with E30S, L50S, N57D, L82P, Q97E
notes: Deimmunized MH5 derivative, human IgG4(S228P)/Ckappa IgG; also called mAb-5
For B11, the binding result in the assay with human insulin was “no binding”. In assay [4], binding was characterised by a dissociation constant (Kd) of 0.785 nM, the “fold of the affinity of hu0301” value was at most 2 fold, the koff was found to be 0.00075 s⁻¹ and the kon came out at 956000 M⁻¹ s⁻¹. In addition, in assay [5], binding was characterised by a dissociation constant (Kd) of 0.444 nM, the “fold of the affinity of hu0301” value was at most 2 fold, the off-rate (koff) was determined as 0.000897 s⁻¹ and the kon came out at 2.02e+06 M⁻¹ s⁻¹.

B12: MH21 (antibody, human IgG4, V domains shown)
VH: B1 VH with N32S, T59N, N61A, P100G
VL: B1 VL with E30S, L82P, Q97E
notes: as for B2
Take B12: in the assay with human insulin, the binding result is reported as “no binding”. Besides, in assay [4], the affinity, expressed as Kd, was 1.84 nM; the koff was found to be 0.00137 s⁻¹; the kon turned out to be 746000 M⁻¹ s⁻¹. For the same molecule, in assay [5], the Kd came to 1.23 nM, the koff was determined as 0.00189 s⁻¹ and the kon was found to be 1.54e+06 M⁻¹ s⁻¹.

B13: MH20 (antibody, human IgG4, V domains shown)
VH: B1 VH with N32S, T59N, N61A, P100G
VL: B1 VL with E30S, L50S, N57D, L82P, Q97E
notes: as for B2
Consider B13, for which the binding result with human insulin was “no binding”. For the same molecule, in assay [4], the Kd came to 1.24 nM, the off-rate (koff) turned out to be 0.00134 s⁻¹ and the on-rate (kon) was found to be 1.08e+06 M⁻¹ s⁻¹. In assay [5], this molecule displayed a Kd of 0.709 nM, a koff of 0.00177 s⁻¹ and a kon of 2.49e+06 M⁻¹ s⁻¹.

B14: MH37 (antibody, human IgG4, V domains shown)
VH: B1 VH with N32S, T59N, N61A, P100G, Q114R
VL: B1 VL with E30S, L82P, Q97E
notes: as for B2
B14: the binding result with human insulin was “no binding”.

B15: MH10 (antibody, human IgG4, V domains shown)
VH: B1 VH with T59N, N61A, P100G
VL: B1 VL with E30S, L50S, L51A, L82P, Q97E
notes: as for B2
Turning to B15, in assay [4], the Kd stood at 1.07 nM, the koff was 0.000754 s⁻¹ and the on-rate (kon) worked out at 705000 M⁻¹ s⁻¹. In assay [5], the Kd was determined as 0.624 nM, the koff was 0.00088 s⁻¹ and the kon was 1.41e+06 M⁻¹ s⁻¹.

(Values after patent US20210301026A1 (ULTRAHUMAN TWELVE, published 2021).)
